These binders were tested against T1, HLA-B*08:01 (human) (assay: UV peptide exchange ELISA).
T1 construct: MHC monomer first loaded with a UV-sensitive peptide that is cleaved by UV light and exchanged for the test peptide
Text: Candidate peptides for T cell based therapies according to the present invention were further tested for their MHC binding capacity (affinity). The individual peptide-MHC complexes were produced by UV-ligand exchange, where a UV-sensitive peptide is cleaved upon UV-irradiation and exchanged with the peptide of interest as analyzed. Only peptide candidates that can effectively bind and stabilize the peptide-receptive MHC molecules prevent dissociation of the MHC complexes. To determine the yield of the exchange reaction, an ELISA was performed based on the detection of the light chain (β2m) of stabilized MHC complexes. The assay was performed as generally described in Rodenko et al. (Rodenko et al., 2006).
96 well MAXISorp plates (NUNC) were coated over night with 2 ug/ml streptavidin in PBS at room temperature, washed 4× and blocked for 1 h at 37° C. in 2% BSA containing blocking buffer. Refolded HLA-A*02:01/MLA-001 monomers served as standards, covering the range of 15-500 ng/ml. Peptide-MHC monomers of the UV-exchange reaction were diluted 100-fold in blocking buffer. Samples were incubated for 1 h at 37° C., washed four times, incubated with 2 ug/ml HRP conjugated anti-β2m for 1 h at 37° C., washed again and detected with TMB solution that is stopped with […]. Absorption was measured at 450 nm. Candidate peptides that show a high exchange yield (preferably higher than 50%, most preferred higher than 75%) are generally preferred for a generation and production of antibodies or fragments thereof, and/or T cell receptors or fragments thereof, as they show sufficient avidity to the MHC molecules and prevent dissociation of the MHC complexes.

Row | Binder | peptide exchange yield
1 | HVQDFTAF [HVQDFTAF (SEQ ID NO: 168)] | 20 to 50%
2 | DMKITVSL [DMKITVSL (SEQ ID NO: 167)] | 50 to 75%
3 | DLISPRQPRL [DLISPRQPRL (SEQ ID NO: 186)] | 20 to 50%
4 | DRLKPLKM [DRLKPLKM (SEQ ID NO: 184)] | 20 to 50%
5 | LLILKTVL [LLILKTVL (SEQ ID NO: 17)] | 50 to 75%
6 | LFKQTKINL [LFKQTKINL (SEQ ID NO: 162)] | 20 to 50%
7 | ILHLSAIAL [ILHLSAIAL (SEQ ID NO: 182)] | ≥ 75%
8 | APDNVLLTL [APDNVLLTL (SEQ ID NO: 189)] | 20 to 50%
9 | LAVPIFVAL [LAVPIFVAL (SEQ ID NO: 180)] | 20 to 50%
10 | HAMPSPRIL [HAMPSPRIL (SEQ ID NO: 174)] | 20 to 50%
11 | FPSQVPKQVL [FPSQVPKQVL (SEQ ID NO: 171)] | 20 to 50%
12 | IPRLAVISI [IPRLAVISI (SEQ ID NO: 178)] | 20 to 50%
13 | EIMEKTTL [EIMEKTTL (SEQ ID NO: 188)] | 20 to 50%
14 | EVMAQFKEI [EVMAQFKEI (SEQ ID NO: 163)] | 20 to 50%

Now from value to binder:

Row | peptide exchange yield | Binder
15 | 10 to 20% | MRFQQFLFA [MRFQQFLFA (SEQ ID NO: 175)]
16 | 20 to 50% | QNSLRHNL [QNSLRHNL (SEQ ID NO: 165)]
17 | 50 to 75% | YPLLKDPSL [YPLLKDPSL (SEQ ID NO: 173)]
18 | 20 to 50% | VLSGGRILAL [VLSGGRILAL (SEQ ID NO: 166)]
19 | 20 to 50% | PYEKVSRL [PYEKVSRL (SEQ ID NO: 172)]
20 | 20 to 50% | YELNNLHAL [YELNNLHAL (SEQ ID NO: 169)]
21 | 20 to 50% | YVSKPGAQL [YVSKPGAQL (SEQ ID NO: 183)]
22 | 20 to 50% | MELKTVKPI [MELKTVKPI (SEQ ID NO: 185)]
23 | 50 to 75% | LPLTEHEL [LPLTEHEL (SEQ ID NO: 179)]
24 | 50 to 75% | LSLVRKAL [LSLVRKAL (SEQ ID NO: 18)]
25 | 20 to 50% | SIRSSYSRF [SIRSSYSRF (SEQ ID NO: 181)]
26 | 20 to 50% | VPYNSVLF [VPYNSVLF (SEQ ID NO: 187)]
27 | 20 to 50% | SVPVRSSPL [SVPVRSSPL (SEQ ID NO: 177)]
28 | 20 to 50% | SPANVRGQSL [SPANVRGQSL (SEQ ID NO: 170)]
29 | 20 to 50% | YVIQRQSVL [YVIQRQSVL (SEQ ID NO: 176)]
30 | 20 to 50% | LPAPIPTLL [LPAPIPTLL (SEQ ID NO: 164)]
